B1: E3 ubiquitin-protein ligase TRIM36, residues 208 to 252; numbered along this chain, Q9NQ86 (parent)
chain: KILMCPEHETERINMYCELCRRPVCHLCKLGGNHANHRVTTMSSA
B2: GAS2-like protein 1, residues 209 to 276; numbered along this chain, Q99501 (parent)
chain: DELVREILGRCTCPDQFPMIKVSEGKYRVGDSSLLIFVRVLRSHVMVRVGGGWDTLEHYLDKHDPCRC

Variants of: B1
Assay: abundance fitness (aPCA) (normalised: wild type 0, dead -1); higher = more abundant; growth selection in yeast, the domain comes from the species named
Conditions: Homo sapiens

Abundance fitness: each site, then its substitutions
A45: S -0.074; T -0.143; R -0.112; C -0.482; G 0.023; V -0.091; K -0.265; D 0.078; P 0.015; Q -0.21; M -0.232; L -0.156; N -0.549
S44: N -0.038; F -0.263; A 0.031; R -0.1; Q -0.038; D 0.069; W -0.274; M -0.138; C -0.208; I -0.246; K -0.212; L -0.179; T -0.028; V -0.047; H -0.119; P 0.034; E 0.086
V39: E 0.037; W -0.138; Y -0.184; I -0.149; Q 0.008; N 0.057; C -0.079; R -0.064; G 0.079; F -0.103; H -0.023; D 0.079; M 0.028; S 0.008; T 0.054; A 0.079; L -0.007; P -0.005
T40: M -0.318; V -0.023; I -0.265; S -0.025; N 0.141; L -0.243; R -0.089; K -0.112; Q -0.014; D 0.039; P 0.003; H -0.146; E -0.04; A -0.027; F -0.317; W -0.287; Y -0.191
R38: A 0.021; T 0.075; S 0.018; K -0.006; F -0.121; V 0.036; N -0.002; W 0; P -0.011; I -0.11; Y -0.005; M 0.008; D 0.05; Q 0.024; C 0.017; E 0.085; G 0.108
T41: Q -0.11; Y -0.29; L -0.149; G 0.003; W -0.249; H -0.526; P -0.059; M -0.142; C -0.112; A -0.111; F -0.189; V -0.084; E 0.071; K 0.007; R -0.093; N -0.289; D -0.026; I -0.158; S -0.043
M42: F -0.034; N -0.059; E 0.16; A 0.12; K 0.079; W -0.071; P 0.087; D 0.039; T 0.097; G 0.123; Y -0.134; L -0.031; S 0.06; V 0.001; H -0.524; Q 0.067; I -0.282
S43: C -0.129; Y -0.439; G -0.022; M -0.13; L -0.181; A 0.001; W -0.352; K -0.145; H -0.067; Q 0.027; N -0.042; I -0.272; D -0.063; V -0.075; T -0.093; E 0.083; F -0.415
H37: M -0.298; Y -0.36; P -0.194; I -0.529; Q -0.119; S -0.198; G -0.127; L -0.26; K -0.176; T -0.208; W -0.44; R -0.242; N -0.231

Variants of: B2
Assay: as above
Conditions: Homo sapiens

Abundance fitness: each site, then its substitutions
L3: C -0.117; V -0.324; T -0.526; K -0.06; P -0.711; Y -0.268; W -0.643; F -0.221; I -0.129; D -0.559; R 0.01; N -0.675; E -0.627; S -0.459; Q -0.025; H -0.34; M -0.034
C11: M -0.771; K -0.949; P -1.17; H -0.966; Q -0.986; I -1.08; A -0.618; V -0.752; L -0.895; Y -0.892; D -0.84; S -0.961; W -1; F -0.848; R -0.932; E -1; T -0.882
L8: N -0.793; D -0.702; F -0.704; H -0.436; I -0.002; K -0.948; V -0.071; T -0.414; P -0.819; A -0.352; Q -0.323; C -0.47; G -0.819; S -0.532; M -0.254; W -0.886; R -0.754; E -0.737; Y -1.05
V4: F -0.35; E -0.463; M -0.34; Q -1.01; S -0.836; H -0.855; D -0.888; C -0.717; L -0.388; K -0.685; R -0.71; T -0.833; N -0.876; W -0.796; A -0.804; I 0.049; G -0.966
D1: F -0.55; P -0.517; C -0.657; T -0.707; A -0.623; G -0.596; R -0.624; S -0.205; E -0.087; W -0.621; N -0.536; V -0.653; K -0.233; L -0.761; Y -0.574; H -0.693
R10: K -0.135; Q -0.088; H -0.013; W -0.728; T -0.111; Y -0.564; P -0.863; C -0.72; A -0.311; E -0.386; N -0.234; I -0.766; F -0.448; S -0.318; G -0.432; V -0.747
I7: M -0.273; D -0.704; R -0.85; Y -0.275; W -0.748; E -0.128; N -0.74; Q 0.069; L -0.012; C -0.365; V -0.219; T -0.38; K -0.367; P -1.04; H -0.473; G -0.763
R5: W -0.126; A 0.056; S 0.093; E 0.056; I -0.465; Q 0.084; T -0.059; V -0.584; C -0.316; Y -0.185; N 0.194; K 0.091; H -0.15; F -0.257; G -0.158; L -0.178; P -0.947; D -0.161
E6: F -0.708; K -0.151; V -0.642; H -0.452; S -0.205; T -0.141; Q -0.071; C -0.701; L -0.446; I -0.521; M -0.309; P -0.864; D -0.136; R -0.165; G -0.347; Y -0.694; N -0.431; W -0.821
G9: P -0.818; L -0.445; N -0.076; V -0.587; W -0.71; A 0.007; K -0.12; S 0.077; M -0.127; F -0.399; I -0.572; T -0.346; D 0.107; H -0.221; Q 0.061; R -0.204; E 0.03; C -0.54
E2: M -0.224; C -0.282; R 0; V -0.434; T 0.012; N 0.073; A -0.263; F 0.1; P -0.218; K 0.031; Y -0.057; D 0.149; H -0.006; S -0.06

From the Human Domainome abundance scans (Beltran et al. 2025)
